Patent US20160333308A1

What was measured:
[1] = biological target: methanol dehydrogenase MDH2 from Bacillus methanolicus PB1 (Bacillus methanolicus PB1); assay: cell-based or functional assay
[2] = test system: activator protein (ACT) from Bacillus methanolicus PB1

Row | Substance | specific activity of MDH2 with ACT, crude lysates [1] [µmol/min/mg] | Km for methanol of MDH2 with ACT, crude lysates [2]
1 | activator protein (ACT) from Bacillus methanolicus PB1 | 0.009 | 
2 | methanol dehydrogenase MDH2 from Bacillus methanolicus PB1 |  | a Km of 119 mM
